Assay results from patent US12559863B2, “Macrocyclic modulators of disease associated protein misfolding and aggregation” (RESQ BIOTECH, priority 2017, dated 2026).

Target: T1, SOD1(A4V)-GFP (Homo sapiens, UniProt P00441, A5V)
T1 construct: polyHis; expressed in transfected cells; host or cells: E. coli Origami 2(DE3) (BL21(DE3) for the FACS screen)
Assay: Fluorescence of E. coli cells co-expressing SOD1(A4V)-GFP and cyclic peptide
Assay type: cell-based
Conditions: co-expression of cyclic peptide; compared to random cyclic peptides from initial library
Source text: Electrocompetent E. coli BL21(DE3) cells (Novagen, USA) carrying either the expression vector pETSOD1(A4V)-GFP, which produces SOD1(A4V)-GFP under control of the strong bacteriophage T7 promoter, or pETAβ42-GFP, which produces Aβ42-GFP under control of the T7 promoter, were co-transformed with the combined pSICLOPPS-NuX1X2X3-X5 vector library. Approximately 10^8 transformants carrying both the vector library and either pETSOD1(A4V)-GFP or pETAβ42-GFP vectors were harvested, pooled together, and grown in Luria-Bertani (LB) liquid medium containing either 0.005% (pETSOD1(A4F)-GFP) or 0.002% (pETAβ42-GFP) L-arabinose—the inducer of cyclic peptide production—at 37° C. with shaking. When the optical density at 600 nm (OD600) of the bacterial culture was about 0.5, 0.01 (pETSOD1(A4F)-GFP) or 0.1 (pETAβ42-GFP) mM isopropyl-β-D-thiogalactoside (IPTG) was added to the medium to induce overexpression of the reporter. […] The isolated cells were re-grown and screened for additional rounds in an identical manner until the desired enrichment in high-fluorescence clones was achieved.
For SOD1 or SOD1-GFP production, BL21(DE3) (Novagen, USA) or Origami 2(DE3) cells (Novagen, USA) were transformed with the corresponding SOD1- or SOD1-GFP-encoding vector, either with the appropriate pSICLOPPS vector or alone. […]
Bacterial cells corresponding to 1 mL culture with OD600=1 were harvested by centrifugation and re-suspended in 100 μL phosphate-buffered saline (PBS), transferred to a 96-well FLUOTRAC 200 plate (Greiner Bio One International, Austria), and their fluorescence was measured using a TECAN Safire II-Basic plate reader (Tecan, Austria). Excitation was set at 488 nm and emission was measured at 510 nm.

T1 sequence (P00441 whole entry A5V): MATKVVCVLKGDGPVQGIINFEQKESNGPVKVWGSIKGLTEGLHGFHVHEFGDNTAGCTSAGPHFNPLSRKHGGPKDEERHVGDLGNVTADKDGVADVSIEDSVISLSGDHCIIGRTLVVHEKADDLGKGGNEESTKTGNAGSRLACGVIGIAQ

Substance	SOD1(A4V)-GFP fluorescence of E. coli cells
cyclo-TASFW (cyclic)	highest levels of cellular SOD1(A4V)-GFP fluorescence
cyclo-TFSMW (cyclic)	highest levels of cellular SOD1(A4V)-GFP fluorescence
